The text below walks through data of patent US20210355175A1 (University of Washington, published 2021).

B2: DHD37_ABXB chain a (designed binder)
chain: DSDEHLKKLKTFLENLRRHLDRLDKHIKQLRDILSENPEDERVKDVIDLSERSVRIVKTVIKIFEDSVRKKE
notes: In Y2H it was fused to Gal4 AD or DBD
B3: DHD37_ABXB chain b (designed binder)
chain: GSDDKELDKLLDTLEKILQTATKIIDDANKLLEKLRRSERKDPKVVETYVELLKRHEKAVKELLEIAKTHAKKVE
notes: Used in Y2H as a co-expressed input or fused to Gal4 AD/DBD; also called 1′; 1′ (b)
B6: DHD13_XAAA chain b (designed binder)
chain: GTEKRLLEEAERAHREQKEIIKKAQELHRRLEEIVRQSGSSEEAKKEAKKILEEIRELSKRSLELLREILYLSQEQKGSLVPR
notes: also called 9′

In one series the target is T1, DHD127 chain b.
T1 construct: also called DHD_127 b
T1 chain: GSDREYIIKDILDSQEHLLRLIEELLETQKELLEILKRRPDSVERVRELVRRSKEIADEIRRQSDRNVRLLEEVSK
The series can be described thus: X-ray crystal structure of the heterodimer.

The series “DHD37_ABXB chain b” concerns the target B3. Put plainly: individual yeast two-hybrid experiments.
The target in series [1] is T2, 2′-1′_6-residue_linker.
T2 construct: also called 1′-2′; 1′-2′ with a 6-residue linker
T2 chain: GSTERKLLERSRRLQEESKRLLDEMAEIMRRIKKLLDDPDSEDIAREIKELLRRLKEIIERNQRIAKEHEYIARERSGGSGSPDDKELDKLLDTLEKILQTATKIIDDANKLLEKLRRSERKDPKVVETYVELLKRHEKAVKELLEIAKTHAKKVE
Put plainly: thermodynamic model matched to native MS titration data. From the text:
(§1) We studied the cooperativity of the induced dimerizer system in vitro using native mass spectrometry (FIG. 11F). […] We define cooperativity as the ratio of the affinities in the presence and absence of the other monomer, which in our model directly relates to the free energy of opening of the dimerizer (c=e^ΔG^ₒₚₑₙ^{/RT}, see supplementary materials).

Series [2] deals with T2, 2′-1′_6-residue_linker. Put plainly: calculated from the cooperativity factor fitted to native MS data.
Description: as §1
We experimentally estimated K₁ using native MS experiments.

For series [3], the target named is T2, 2′-1′_6-residue_linker. The series can be described thus: native mass spectrometry, 10 µM of 1 and 1′-2′; bound from the detection limit of 0.0375 µM.
For a further series, the target named is T3, DHD39 chain b.
T3 construct: In the NOR gate it was fused to the Gal4 DBD; also called 10′; DHD_39 b
T3 chain: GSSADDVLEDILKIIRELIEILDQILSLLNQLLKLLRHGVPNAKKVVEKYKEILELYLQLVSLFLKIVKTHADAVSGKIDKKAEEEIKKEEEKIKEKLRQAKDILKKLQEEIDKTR
Put plainly: individual yeast two-hybrid experiments.

The series “DHD37_ABXB chain a” addresses B2. The series can be described thus: individual yeast two-hybrid experiments.
The target of the series “DHD13_XAAA chain b” is B6. The series can be described thus: yeast two-hybrid competition by the co-expressed unfused monomer.
The target of another series is T4, DHD17 chain b.
T4 construct: Co-expressed input protein of the NOT gate; also called 8′
T4 chain: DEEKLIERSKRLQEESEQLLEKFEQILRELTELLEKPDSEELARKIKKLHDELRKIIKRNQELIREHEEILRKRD
Put plainly: yeast two-hybrid.

The series “yeast two-hybrid” deals with the molecule itself. Put plainly: yeast two-hybrid.
The target of the next series is T5, DHD37_1:234 chain b.
T5 construct: Single-helix monomer of the backbone-permuted 3+1 heterodimer
T5 chain: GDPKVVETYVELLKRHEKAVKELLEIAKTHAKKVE
The series can be described thus: X-ray crystal structure of the heterodimer.

The target of the next series is T6, DHD9 chain b.
T6 construct: also called 9b; 9_b
T6 chain: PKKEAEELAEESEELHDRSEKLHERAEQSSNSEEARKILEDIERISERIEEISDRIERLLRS
The series can be described thus: co-expression in E. coli, one b monomer His-tagged.

The next series concerns the target T7, DHDSC_9-13-37 chain 13b.
T7 chain: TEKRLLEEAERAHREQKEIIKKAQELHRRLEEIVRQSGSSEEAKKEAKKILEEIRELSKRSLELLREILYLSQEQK
The series can be described thus: co-expression in E. coli, one b monomer His-tagged.

Description for DHD127 chain b: (§2) The X-ray data sets were collected at the Advanced Light Source at Lawrence Berkeley National Laboratory with beamlines 8.2.1 and 8.2.2. Data sets were indexed and scaled using either XDS³³ or HKL2000³⁴. Initial models were generated by the molecular-replacement method with the program PHASER³⁵ within the Phenix™ software suite³⁶, using the design models as the initial search models. Efforts were made to reduce model bias through refinement with simulated annealing using Phenix.Refine™³⁷, or, if the resolution was sufficient, by using Phenix.Autobuild™³⁸ with rebuild-in-place set to false, simulated annealing and prime-and-switch phasing. Iterative rounds of manual building in COOT³⁹ and refinement in Phenix™ were used to produce the final models. […] RMSDs of bond lengths, angles and dihedrals from ideal geometries were calculated with Phenix™³⁶.
Description for DHD37_1:234 chain b: as §2

B1: DHD127 chain a (designed binder)
chain: GSPRSYLLKELADLSQHLVRLLERLVRESERVVEVLERGEVDEEELKRLEDLHRELEKAVREVRETHREIRERSR
notes: also called DHD_127 a
As for B1, the binding result with DHD127 chain b is on record as “binds”. One may read the Kd as the constant that tells how readily two partners part at equilibrium. For the molecule B2, in the series with DHD37_ABXB chain b, the binding result is given as “binds”. Moreover, the “cooperativity c (ratio of the affinities in the presence and absence of the other monomer)” value with 2′-1′_6-residue_linker [1] was 991000. Moreover, the Kd with 2′-1′_6-residue_linker [2] is 9.91 mM; in the series with 2′-1′_6-residue_linker [3], 2.65 mM. As for B3, in the series with DHD39 chain b, the binding result is listed as “binds”.

B4: DHD13_XAAA chain a (designed binder)
chain: GTKEDILERQRKIIERAQEIHRRQQEILEELERIIRKPGSSEEAMKRMLKLLEESLRLLKELLELSEESAQLLYEQR
With B4, the binding result in the series with DHD37_ABXB chain a, with DHD39 chain b and in the series with DHD13_XAAA chain b was “binds” in each case.

B5: DHD39 chain a (designed binder)
chain: DHSRKLEEILDRLRKHVKRLLEHLRELLSLVKENPEDKDLVEVLELSLAILRRSLEAVEAFLKSVTKKDPDDEDLRRKADEIRKEVEEIKKSLAEVEKEIYKLK
notes: also called 10; DHD_39 a
In the case of B5, the binding result with DHD39 chain b is “binds”. As for B6, the binding result with DHD37_ABXB chain b was “binds”.

B7: DHD17 chain a (designed binder)
chain: DRKDLLKRNIKLLDRHLKILDTILKLLEKLSELLKKSSSEEVVKEYKKILDEIRKLLEESKEIHKESKEILERES
notes: In the NOT gate it was fused to both Gal4 AD and DBD; also called DHS 17 a
For the molecule B7, the binding result with DHD17 chain b and in “yeast two-hybrid” was “binds” in each case.

B8: DHD37_1:234 chain a (designed binder)
chain: DSDEHLYKLKTFLENLRRHLDRLDKHIKQLRDILSENPEDERVKDAIDLSERSVRIVKTVIKIFEDSVRKKEKRPIDKRDDKELDKLLDTLEKILQTATKIIDDANKLLEYLRR
notes: Three-helix monomer of the backbone-permuted 3+1 heterodimer
Take B8: the binding result with DHD37_1:234 chain b is “binds”.

B9: DHDSC_9-13-37 scaffold, chain 9a-13a-37a (designed binder)
chain: PKEEARELIRKQKELIKEQKKLIKEAKQKSDSRDAERIWKRSREINRESKKINKRIKELIKSGSEGSGSEGSGSTKEDILERQRKIIERAQEIHRRQQEILEELERIIRKPGSSEEAMKRMLKLLEESLRLLKELLELSEESAQLLYEQRGSEGSGSEGSGSDSDEHLKKLKTFLENLRRHLDRLDKHIKQLRDILSENPEDERVKDVIDLSERSVRIVKTVIKIFEDSVRKKE
With B9, the binding result with DHD9 chain b and with DHDSC_9-13-37 chain 13b was “binds” each time.
